Test results published in US20220363752A1 (VERSEAU THERAPEUTICS, published 2022).
Each block holds one binder with its values, some of them ahead of it. Primed or numbered codes have the meaning given here. Biotin′ = not defined here

How the values were obtained:
[1] = target: T1, LRRC25(96-115) biotin peptide (human, not fully specified; N-terminal acetyl; C-terminal GGK-Biotin; native Cys changed to Ser); experiment: ELISA, 20 nM antibody, biotinylated antigen on streptavidin plate
T1 construct: also called Biotin LRRC25 (96-115) peptide
T1 peptide: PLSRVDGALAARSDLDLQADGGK
How it was run: (§1)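 Plate-bound streptavidin captured biotinylated 16- to 20-mer LRRC25 ECD overlapping peptides (2 ug/mL), with biotinylated human LRRC25-His as positive control. Chimeric anti-LRRC25 antibodies at 20 nM, 45 min at 37° C in duplicate; detection by HRP anti-human IgG and TMB at A450 nm.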

[2] = target: T2, biotinylated human LRRC25-His protein (human, UniProt Q8N386 21-165, biotinylated (sites not given)); experiment: as above
T2 construct: also called Biotin LRRC25-His; biotinylated LRRC25 protein
T2 sequence (Q8N386 other isoform, or with tags, fused parts or gaps): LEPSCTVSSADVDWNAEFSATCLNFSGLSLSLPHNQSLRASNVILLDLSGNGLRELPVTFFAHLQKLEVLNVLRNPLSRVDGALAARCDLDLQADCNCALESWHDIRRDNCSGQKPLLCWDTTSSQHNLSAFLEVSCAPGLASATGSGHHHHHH
How it was run: as §1

[3] = target: T3, His-tagged cynomolgus monkey LRRC25 extracellular domain protein, cyno LRRC25-His (cynomolgus monkey); experiment: ELISA, antibody titrated on plate-immobilized Cyno LRRC25(ECD)-His, A450nm against -log [IgG] (M), right panel
T3 construct: The entry holds the extracellular domain, a GSG linker and the His tag
T3 sequence (chain, as listed by the source limits assumed): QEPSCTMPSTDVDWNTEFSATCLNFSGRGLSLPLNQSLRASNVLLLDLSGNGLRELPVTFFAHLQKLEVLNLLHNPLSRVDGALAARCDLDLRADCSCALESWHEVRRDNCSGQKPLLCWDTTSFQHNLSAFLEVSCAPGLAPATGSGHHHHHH
Experimental: (§2) To establish the relative binding strengths of anti-LRRC25 antibodies against human LRRC25, and their cross-reactivity with cynomolgus monkey LRRC25, antibody binding curve analyses were performed and EC50 values against plate-immobilized recombinant human and cyno LRRC25 proteins were determined.
(§3) A typical ELISA was performed by coating overnight in PBS, pH 7.4, at 4° C. in high binding microtiter wells with 1 ug/mL/100 ul per well of human LRRC25-His or cyno LRRC25-His. An anti-human LRRC25 antibody (2A3, LS Bio, LS-C174039-100) and anti-HIS-HRP (Miltenyi Biotec; 130-092-783) served as coating controls for the human and cyno LRRC25 proteins, respectively. […] Anti-LRRC25 antibodies were added (100 ul per well) at 500 nM and serially diluted 3-fold in assay buffer (1% skimmed milk in PBS, pH 7.4). The plate was incubated with gentle agitation for 1 h at room temperature. The plate was washed 3× and HRP-conjugated secondary antibody in assay buffer added [100 ul per well; goat anti-human IgG (Jackson Immunoresearch, cat #715-035-150)], and the plate was incubated as before. Antibody bound to plate-immobilized LRRC25(ECD)-HIS was determined at A450 nm using HRP substrate (3,3′,5,5′-tetramethylbenzidine (TMB); eBioscience; 00-4201-56); 100 μl/well).

[4] = target: T4, His-tagged human LRRC25 extracellular domain protein, human LRRC25-His (human, UniProt Q8N386 21-165); experiment: ELISA, plate-immobilized antigen
T4 construct: The entry holds the extracellular domain, a GSG linker and the His tag; also called LRRC25(ECD)-HIS
T4 sequence (Q8N386 other isoform, or with tags, fused parts or gaps): as the sequence (Q8N386 other isoform, or with tags, fused parts or gaps) above
How it was run: (§4)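 Wells coated overnight at 4 °C with 1 ug/mL antigen in PBS pH 7.4. Antibodies titrated from 500 nM in 3-fold steps in 1% skimmed milk/PBS, 1 h at room temperature, then HRP anti-human IgG; TMB read at A450 nm and EC50 taken from binding curves.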

[5] = target: T5, LRRC25(66-85) biotin peptide (human, not fully specified; N-terminal acetyl; C-terminal GGK-Biotin); experiment: peptide ELISA
T5 peptide: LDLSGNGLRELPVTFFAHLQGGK
How it was run: as §1

[6] = target: T6, LRRC25(36-55) biotin peptide (human, not fully specified; N-terminal NH2; C-terminal GGK-Biotin; native Cys changed to Ser); experiment: peptide ELISA
T6 peptide: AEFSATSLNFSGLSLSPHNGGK
How it was run: as §1

[7] = target: T7, LRRC25(126-145) biotin peptide (human, not fully specified; N-terminal acetyl; C-terminal GGK-Biotin; native Cys changed to Ser); experiment: peptide ELISA
T7 peptide: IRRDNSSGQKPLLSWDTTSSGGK
How it was run: as §1

[8] = target: T8, LRRC25(150-165) biotin peptide (human); experiment: peptide ELISA
T8 peptide: Ac-SAFLEVSSAPGLASATGG-{Biotin′}
How it was run: as §1

[9] = target: T9, LRRC25(51-69) biotin peptide (human, not fully specified; N-terminal acetyl; C-terminal GGK-Biotin); experiment: peptide ELISA
T9 peptide: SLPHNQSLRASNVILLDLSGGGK
How it was run: as §1

[10] = target: T10, LRRC25(111-130) biotin peptide (human, not fully specified; N-terminal acetyl; C-terminal GGK-Biotin; native Cys changed to Ser); experiment: peptide ELISA
T10 peptide: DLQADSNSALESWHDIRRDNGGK
How it was run: as §1

[11] = target: T11, LRRC25(141-159) biotin peptide (human, not fully specified; N-terminal acetyl; C-terminal GGK-Biotin; native Cys changed to Ser); experiment: peptide ELISA
T11 peptide: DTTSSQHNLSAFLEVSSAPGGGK
How it was run: as §1

[12] = target: T1, LRRC25(96-115) biotin peptide; experiment: peptide ELISA
How it was run: as §1

[13] = target: T12, LRRC25(81-100) biotin peptide (human, not fully specified; N-terminal acetyl; C-terminal GGK-Biotin); experiment: peptide ELISA
T12 peptide: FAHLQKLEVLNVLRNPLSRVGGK
How it was run: as §1

[14] = target: T13, LRRC25(21-40) biotin peptide (human, not fully specified; N-terminal NH2; C-terminal GGK-Biotin; native Cys changed to Ser); experiment: peptide ELISA
T13 peptide: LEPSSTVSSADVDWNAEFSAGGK
How it was run: as §1

[15] = target: T12, LRRC25(81-100) biotin peptide; experiment: ELISA, 20 nM antibody, biotinylated antigen on streptavidin plate
How it was run: as §1

[16] = target: T4, His-tagged human LRRC25 extracellular …; experiment: ELISA, antibody titrated on plate-immobilized Human LRRC25(ECD)-His, A450nm against -log [IgG] (M), left panel
Experimental: as §2, §3

[17] = target: T3, His-tagged cynomolgus monkey LRRC25 …; experiment: ELISA, plate-immobilized antigen
How it was run: as §4

absorbance (A450) [1]: 0.088 A450
absorbance (A450) [2]: 0.305 A450
EC50 [4]: 51.1 nM
binding result [5]: no binding (tested: 20 nM)
binding result [6]: no binding (tested: 20 nM)
binding result [7]: no binding (tested: 20 nM)
binding result [8]: no binding (tested: 20 nM)
binding result [9]: no binding (tested: 20 nM)
binding result [10]: no binding (tested: 20 nM)
binding result [11]: no binding (tested: 20 nM)
binding result [12]: no binding (tested: 20 nM)
binding result [13]: no binding (tested: 20 nM)
binding result [14]: no binding (tested: 20 nM)
B1: anti-LRRC25 chimeric antibody 3A08 (antibody, human IgG4)
heavy: DVKLVESGGGLVKPGGSLKLSCAVSGFTLSSYAMSWVRQTPEKRLEWVASISRGGSTYYPDSVKGRFTISRDNGRNILNLQMSSLRSEDTAIYYCARGGGSTMITSLFAYWGQGTLVTVSAASTKGPSVFPLAPCSRSTSESTAALGCLVKDYFPEPVTVSWNSGALTSGVHTFPAVLQSSGLYSLSSVVTVPSSSLGTKTYTCNVDHKPSNTKVDKRVESKYGPPCPPCPAPEFLGGPSVFLFPPKPKDTLMISRTPEVTCVVVDVSQEDPEVQFNWYVDGVEVHNAKTKPREEQFNSTYRWSVLTVLHQDWLNGKEYKCKVSNKGLPSSIEKTISKAKGQPREPQVYTLPPSQEEMTKNQVSLTCLVKGFYPSDIAVEWESNGQPENNYKTTPPVLDSDGSFFLYSRLTVDKSRWQEGNVFSCSVMHEALHNHYTQKSLSLSLGK
light: DIVMTQAAFSNPVTLGTSASISCRSSKSLLHSNGITYLYWYLQKPGQSPQLLIYQMSNLASGVPDRFSSSGSGTDFTLRISRVEAEDVGVYYCAQNLELPFTFGSGTKLEIKRTVAAPSVFIFPPSDEQLKSGTASVVCLLNNFYPREAKVQWKVDNALQSGNSQESVTEQDSKDSTYSLSSTLTLSKADYEKHKVYACEVTHQGLSSPVTKSFNRGEC
notes: also called mAb 3A08
binding result [3]: no binding (tested: about 5e-7 M (-log [IgG] about 6.3))

absorbance (A450) [1]: 0.095 A450
absorbance (A450) [15]: 0.676 A450
fold lower assay signal than with the biotinylated LRRC25 protein [15]: ~4 fold
absorbance (A450) [2]: 2.5 A450
EC50 (read off the curve) [3]: ~0.7 nM
EC50 (read off the curve) [16]: ~1 nM
EC50 [17]: 0.68 nM
EC50 [4]: 1.2 nM
B2: anti-LRRC25 chimeric antibody 2D09 (antibody, human IgG4, V domains shown)
VH: QVTLKESGPGTVQPSQTLSLTCSFSGFSLSTSGMGVSWIRQSSGKGLEWLAHIYWDDDKRYNPSLKSRLTISKDTSSNQVFLRITSVDTADTATYYCARRPRDFYGGGHWYFDVWGAGTTVTVSS
VL: DVVMTQTPKSMSMSVGERVTLNCKASENVGTYVSWYQQKPEQSPKLLIYGASNRYTGVPDRFTGSGSATDFTLTISSMQAEDLADYHCGQSYNFPLTFGAGTKLELKR
notes: also called mAb 2D09; MAb 2D09
